Measured values from PMC3037694.

Tests used:
[1] = target: HA-tagged bovine pancreatic RNase N113S expressed in CHO cells (bovine) (UniProt P61823)
[2] = target: HA-tagged bovine pancreatic RNase expressed in CHO cells (bovine) (UniProt P61823)

HA-tagged bovine pancreatic RNase N113S expressed in CHO cells (from UniProt P61823 27-150) (enzyme)
efficiency of secretion after a 60-min chase (pulse-chase, CHO cells) [1]: 72%

HA-tagged bovine pancreatic RNase expressed in CHO cells (from UniProt P61823 27-150) (enzyme)
efficiency of secretion after a 60-min chase (pulse-chase, CHO cells) [2]: 45%
